Columns and labels:
[1] = HPLC-assay for in-use stability after reconstitution with 4.2% sodium hydrogen carbonate solution (Example 3, peptides SEQ ID NO 11-23); type: physicochemical
Method: For clinical trials the above described formulation is dissolved in 700 μl sodium hydrogen carbonate (4.2%). To dissolve the lyophilisate, the vial and the diluent shall be shaken vigorously for 1 minute, check whether solution is clear, otherwise continue shaking for another minute until the solution is clear. Administration of 500 μL of the solution has to occur within 1 h after reconstitution. Dissolved lyophilisate may be stored aseptically at room temperature for up to 1 hour following reconstitution.
(§1) Identity, purity and peptide content are determined by analytical RP-HPLC chromatography. Detection wavelength was 220 nm.

[2] = HPLC-assay for stability of peptides in lyophilised formulation on storage for 3 months (Example 4); type: physicochemical; conditions: for stability of peptides in formulation, 1 M: 1 month; for stability of peptides in formulation, 2 M: 2 months; for stability of peptides in formulation, 3 M: 3 months
Method: as §1

Sequence | in-use stability, Peptide [%] ([1]; +Mannitol/Lutrol, 2h) | in-use stability, Peptide [%] ([1]; +Mannitol/Lutrol, 4h) | in-use stability, Peptide [%] ([1]; +Mannitol/Lutrol, 6h) | in-use stability, Peptide [%] ([1]; +Mannitol/Lutrol, Initial) | in-use stability, Peptide [%] ([1]; no excipients, 2h) | in-use stability, Peptide [%] ([1]; no excipients, 4h) | in-use stability, Peptide [%] ([1]; no excipients, 6h) | in-use stability, Peptide [%] ([1]; no excipients, Initial) | stability of peptides in formulation, 1 M ([2]; +5° C. +/- 3° C.) | stability of peptides in formulation, 2 M ([2]; +5° C. +/- 3° C.) | stability of peptides in formulation, 3 M ([2]; +5° C. +/- 3° C.) | stability of peptides in formulation, INITIAL ([2]; +5° C. +/- 3° C.) | stability of peptides in formulation, 1 M ([2]; +25° C. +/- 2° C.) | stability of peptides in formulation, 2 M ([2]; +25° C. +/- 2° C.) | stability of peptides in formulation, 3 M ([2]; +25° C. +/- 2° C.) | stability of peptides in formulation, INITIAL ([2]; +25° C. +/- 2° C.) | stability of peptides in formulation, 1 M ([2]; -20° C. +/- 5° C.) | stability of peptides in formulation, 2 M ([2]; -20° C. +/- 5° C.) | stability of peptides in formulation, 3 M ([2]; -20° C. +/- 5° C.) | stability of peptides in formulation, INITIAL ([2]; -20° C. +/- 5° C.)
LTFGDVVAV (listed as Homo sapiens) [FABP7-001] | 100.9% | 100.7% | 100.6% | 100.0% | 100.5% | 100.9% | 96.3% | 100.0% | 99.08 % of Initial | 98.15 % of Initial | 98.66 % of Initial | 100.0% | 98.43 % of Initial | 97.71 % of Initial | 98.67 % of Initial | 100.0% | 99.09 % of Initial | 97.60 % of Initial | 98.39 % of Initial | 100.0%
NLDTLMTYV (listed as Homo sapiens) [NLGN4X-001, Neuroligin 4, X-linked peptide] | 100.8% | 100.9% | 100.5% | 100.0% | 99.9% | 100.5% | 95.7% | 100.0% | 99.12 % of Initial | 98.24 % of Initial | 98.84 % of Initial | 100.0% | 97.90 % of Initial | 96.30 % of Initial | 96.41 % of Initial | 100.0% | 99.05 % of Initial | 97.60 % of Initial | 98.62 % of Initial | 100.0%
TFSYVDPVITSISPKYG (listed as Homo sapiens) [MET-005, Met proto-oncogene peptide] | 100.5% | 100.7% | 100.4% | 100.0% | 100.3% | 100.7% | 96.0% | 100.0% | 99.06 % of Initial | 97.92 % of Initial | 98.59 % of Initial | 100.0% | 97.49 % of Initial | 96.13 % of Initial | 97.21 % of Initial | 100.0% | 99.14 % of Initial | 97.54 % of Initial | 99.00 % of Initial | 100.0%
TLGEFLKLDRERAKN (listed as Homo sapiens) [BIR-002, Baculoviral IAP repeat-containing 5 (survivin) peptide] | 100.8% | 101.2% | 100.9% | 100.0% | 100.6% | 101.4% | 96.2% | 100.0% | 98.53 % of Initial | 97.28 % of Initial | 100.01 % of Initial | 100.0% | 97.49 % of Initial | 96.24 % of Initial | 98.93 % of Initial | 100.0% | 98.43 % of Initial | 96.98 % of Initial | 100.14 % of Initial | 100.0%
